Measurements reported in the DeepSol protein solubility set.

Assay: soluble on expression in E. coli; label from the status in PepcDB or PDB records

Sequence	soluble on expression in E. coli
MAHHHHHHMDYRQKAARLPRSAEEKSRWRRVIIILEHCPLAVVRGKYGFELLAERHRAHHARYKQDPAEWRPDVVHQALLHLMDSPLNRAGMLQVFLRTKKGVVIAVDPRLRVPRHMRLFEKMMVSCLYRMKVRAANGSVSLLRVVKNPVTDHIPANCTLIRVEKDGDAVPDIFAYCATCGTNRHADGSTSENVGTATACSSSAGSDAKEPHFAQKHRDLADAKQFRPFAFIIGGMSKGDVDAPYAPRAQVKSIRLGDRGMSAAAACSVIIHGFEEEWLREDNEAC	not soluble
MAGDPMGNSSTKGSADSKGDKLHVVTTFYPMYEFTKQIVKDKGDVDLLIPSSVEPHDWEPTPKDIANIQDADLFVYNSEYMETWVPSAEKSMGQGHAVFVNASKGIDLMEGSEEEHEEHDHGEHEHSHAMDPHVWLSPVLAQKEVKNITAQIVKQDPDNKEYYEKNSKEYIAKLQDLDKLYRTTAKKAEKKEFITQHTAFGYLAKEYGLKQVPIAGLSPDQEPSAASLAKLKTYAKEHNVKVIYFEEIASSKVADTLASEIGAKTEVLNTLEGLSKEEQDKGLGYIDIMKQNLDALKDSLLVKSLEHHHHHH	soluble
MGACRRIFKNYEPCELTICVTIICEPRSPPKFDHWKISKPGCPPKIISCSKATNNDVNREKRSRRKLVKKRTPSEVIEKLEEQEGSENCENVPFDKPLLHSDSATLICDEVATSRSPFEISTNEVENVDIQSEPRDRHVSITSMESVAGLGEADDQDDVTILKGLEEVHEIEVDKTVIEESIPNQPKGQRFDLLSNGDVTIPAMIMNDVDGPKKKLLVRRKKKSKTPDSPPQYRDYTETSIYMYIEMDKQNVGEFVWDQQCTRIDALVAPIVELDRMTTPEIPLEIELFD	not soluble
MAIDFHLSASQKGTYQAARSLARNLLMPARQTYLQHPPNSPLRFQSTQPTYAAAVSAGILKGQISPAHGGTGGTLIESAILVEECYSVEPSAALTIFATGLGLTPINLAAGPQHAEFLAPFLSGEGSPLASLVFSEPGGVANALEKGAPGFQTTARLEGDEWVINGEKMWATNCAGWDFKGCDLACVVCRDATTPLEEGQDPENKVMIILVTRADLDRNGEGSFEVLRHVATPGHTSVSGPHVRYTNVRVPTKNVLCPAGQGAKVAFGAFDGSAVLVGAMGVGLMRAAFDAALKFAKEDNRGGAVPLLERQAFADLLSGVKIQTEAARALTWKAAHAMENGPGDYDARRELALAAKVFCSEAAVKACTDVINAVGISAYDLQRPFSDLLNTAVVLPIFDGGNVGIRRRHLQQLMLKPTYDAWSSTYGSFPGSHHHHHH	soluble
GAATMMRLARAMRPRPDGLPAQADDLRLHRLVLNDVGPRLNVEALQRIAGNVAAQDSYPTFEAAVAAMRQISTTFGPHTDAQWDELARHIYVRQGGGWVRHFDPALAVPLGAQVAQAFEAGERILWQAYDSLDCPVLIVRGQDSDLLSAATAAEMLGRNPRARLHEVPGVGHAPTLMTPEQIEPIARFLQE	not soluble
MSLDRGVQWVLMGAPGAWRHVFAERLSKLLEVPHISMGSLVRQELNPRSSLYKEIASAVNERKLVPKSVVFALLSKRLEEGYARGETGFILHGIPRTRFQAETLDQIAQIDLVVNLKCSEDHLVNRNETALPQQEFLGSMLHSPVAINARRESVGVYAQEVEEYYRKQRKLLDFHVGGATSADTWQGLLAALHLKQVNLTTSQKLTEGHHHHHH	not soluble
MGSDKIHHHHHHMRESVVKLNEYTLRIFSLNTIVVGSGAAGLNAVDRVFSFGQKDVALLTDNLKWGTSRNTGSDKQTYYKLTLAGNVPDSVYELAETLFNGGSMDGDIALVEAALSARAFFRLVELGVPFPHSRYGEYVGYKTDHDPKQRATSAGPLTSYYMCEKLLEEIRRKGIKIFEGYQVIGILTDRNEEKTIGLIALDLNNIDDPEKRYVLFNVKNIIYATGGPAGMFYFHSVYPPVHFGATGIAFEAGVMGKNLTEWQFGIASKKFRWNLSGTYQQVIPRYVSTDENGNDEREFLEEYFPDPSTMLNAIFLKGYQWPFDVRKIKNYGSSLIDILVFYETVIKGRRVWLDFTRNPSWGSKNGELDFSLLGKEAYEYLKNSGALFGRPIDRLEKMNRPAIEVYLQHGIDLRKEYLEIGVCAQHNNGGLHGNIWWESNLKHFFPVGEVNGSHGVYRPGGSALNSGQVGGVRAAQYIVENYSGDPLCEEEILEEAKDQILKKIELGESFVKKITGKSNVSSILKEISERSMRSMGIVRSLEEAGKGKNEALRDFNNLIEKVELSSIRQLPFAFRLYDVLLTQYVYLSAVENYIESGGKSRGSYIVHDPTGELPVPNLPEMFRYSLAGESFNKKIQRVRCKENRCEFFWDPVKEIPREDTWFETIWNSFMRREVFR	not soluble
MIKKLPLFIIVCLLAISSQALAETELEIEGLEGPLLSNVEAYISGIPEEDYSVSLRFQARLQESITDALKALGYYQSTTTFVVEGDTSDRTLLVNIDAGQPVIIYVSDIVISGEAAADEDFINAVDNSGLNLGQVINHGRYESLKSTLQNLALRKGYFDGDFTTNRLEIAPGRHQAIVRIHYDSGKRYSFGETSIDGSQIEEKRVRSIIPFQAGDPYLASQVGELNQYLSNTEWFSSVYVEPDIDAVGKTYQLPMKVHLSPQVRNQLETSIGYATDVGARGKIRWKKPWLNPEGHSLDTALSISKPEQEATISYKIPLEQVLKDYYVVKYGLKNVDNNDTDSLESNLAFERHWVYDSGWHRTIYTRFLYEEFTQGVQDGTAWLVLPGISFSKSRSRGGTMPMWGDKKAFTIEATDQALTSDVKLLRLQAQGAIVRSIGENHRGVARADIGAIYTDDFYKLPPSIRFFAGGDNSIRGYGYEEVSPKDSEGYLTGGQYMATASLEYQYRVVGNWWVATFVDYGDAWLDTPDWKMGTGVGIRWASPVGPVRLDFAWGLDAEPGDEFKIHFTLGPEVLEHHHHHH	soluble
HEHNTIPKGASIEVKVQQLDPVNGNKDVGTVTITESNYGLVFTPDLQGLSEGLHGFHIHENPSCEPKEEEGELTAGLGAGGHWDPKGAKQHGYPWQDDAHLGDLPALTVLHDGTATNPVLAPRLKHLDDVRGHSIMIHTGGDNHSDHPAPLGGGGPRMACGVIK	soluble
MALKPTIYKFRIALSDMNNDYYDSKNLTIALHPSEKPQRMLARILAFCLNAQKDLEFTKGLSTTEEPDLWHVADDQSITHWIEIGEPEPDRIKKASRLAKQVKVYTYNTKAPVWWEKMSGKFSMLPVSVESFDYDAIDMICQHLDRGTNLSVMITGTSIFVDVNDQHVEVTVKELQSHDAP	not soluble
MKKLAILLVCAAMLASCNGLGGGSKDLKAENDSLLMELTQRNAELDEMMGTFNEVQEGFRKINAAESRVDLTRGTISENSATAKQQIASDIEFITKQMEENKAQIAKLQAMLKSSKNNSAQLKKAVESLTQELVAKTQRIEELQAELASKNIRIQELDAAVTGLTADKESLAAENEAKAKTVAEQDKAINSAWFVFGTKSELKTQKILEKGDVLKSADFNKDYFTQIDIRTTKEIKLYSKRAELLTTHPAKSYELVKDDKGQLTLKITNPKEFWSVSKYLVIQVK	not soluble
MGSDKIHHHHHHMHSMRLSQIQDFIAVAEGGSIRAAARTRDVSAPALTKSIRQLEDELHVPLLTRTTRGVVLSHYGEAFLRRARLIATEARRATEEMTQMLGARTGTVRIGVTGGPAHLLLPAALNRFRRQHPEVQVYIDSGRSAVHLQDLRAGLIDVAVSPIPDEGIDHDFICEPLYNNDSVVVAHQDHPLRHARTLRELVGSEWILTTCRMHGPGAAIMDAFRAQDLPLPRVAVRCDTFNLIQALLQNRRLLCMVARQLMQDRVGASTGLAVLPIEDPLPSHTVCLIYRADSPMPPVVASFAAQLRREAHYLINMPDSPLKRPGAPPEPRDDKPVETADIAV	not soluble
MSLTYPVLKGAGYVLIHTPDMIVQNGSTCTVERATNPDSEFLKEVSNHIRSYEDVVNYMPNQVYIGNRRPEELRDLPMPWCEQKIEGTRNGKFGEIMPQDEFIALMQISDAFDLVKLSQEFIDEVKPKIENNYPEIAPFVGKLKGDDIEEGKELVATHIAEGLYHDGKFVGYVKRAHDVDVNLNAHTMFENLVVKASGVLSAIQMLRHSKIDPAEIDYVIECSEEACGDINQRGGGNFAKSIAEIAGLQNATGSDTRGFCAAPTHALIQAAALVKAGIHKNVMVVAGGASAKLGMNAKDHVKKGLPVLEDVVGGFAVLVSENDGVNPVIRTDLTGKHTVGTGSSPQAVMTALITSGLDRANLKITDVDVYSVEMQNPDITKPAGAGDVPEANYKMIGALAVKRGDLEKKELKDFVSNKGLPGWAPTQGHIPSGAPYIGFLIDDLTTGNRNRAMIVGKGSLFLGRMTNLFDGVSFIAERNTGVTEETSGISKDEIKKIIAESMKKLALDMLEEGHHHHHH	soluble
